The target of this assay is T1, GFP-AtCNIH5 (genomic AtCNIH5pro: GFP-AtCNIH5 in cnih5) (Arabidopsis thaliana, UniProt Q9SZ74 1-135).
T1 sequence (looked up): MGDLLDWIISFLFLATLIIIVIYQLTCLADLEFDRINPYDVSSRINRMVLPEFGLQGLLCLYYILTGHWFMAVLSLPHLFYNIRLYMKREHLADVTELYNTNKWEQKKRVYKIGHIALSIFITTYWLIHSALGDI
Kind of assay: co-IP.

B1: endogenous AtPHF1 (natural protein, UniProt Q8GYE0 1-398, looked up)
chain: MEIEEASRESGHVVCGSWIRRPKKVNWVLIAKASKRRGSSVSSPALLNIFSFDPITASLSSSPLATHTLKDSDGDPVAVSVHPGGDYFVCSTSKGGCKLFELVGGATGITILAKELLPLQNAGLQKCMAFSFDGSKLAVGGVDGCLRIMEWPNLSVILDEPKAHKSIRDMDFSLDSEFLATTSTDGSARIWKAEDGFPLSTLERSGDENIELCRFSKDGTKPFLFCAAQRGDTPMVNVYDISTWKKLGFKKLSRKTASTMAVSLDGKYIALGGKDGDVSVAEVKTMEIYHYSKRLHLGQSIASLEFCPSERVMLTTSSEWGEMVTKLTVPKEWKEWQIYALLFCLFMASVIAAYVFFENSDSFWKLPMGKDQKRPKISLFGGSSSTPSEDHSRWNLDL
With B1, the “fold co-immunoprecipitated against the free GFP control” value is approximately 40 times.

For the origin of these results see doi:10.1101/2024.06.20.599911 (bioRxiv, 2024).
